We go through 125 sequences from the supplement of paper PMC9112550, “Optimization of the antimicrobial peptide Bac7 by deep mutational scanning” (BMC Biology, 2022).

The series relates to Escherichia coli TOP10. Nature of the series: shrunken log2 fold change of peptide-encoding DNA abundance (4.5 h post-induction vs induction); higher = less antimicrobial activity (less host growth inhibition). Conditions: time post-induction: 4.5 h; library: site-saturation at positions 5, 18, 19, 20.
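Further: peptides expressed intracellularly from a pBAD plasmid library in pooled LB shake-flask culture, induced with 0.3% L-arabinose, DNA abundance read by NGS, three biological replicates, DESeq2 with apeglm shrinkage.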

On to RRIRKRPPRLPRPRPRPKWLPRP, for which the “shrunken log2 fold change” value is -0.0433.

For RRIRHRPPRLPRPRPRPWWHPRP, the “shrunken log2 fold change” value is -0.113. Turning to RRIRQRPPRLPRPRPRPAVCPRP, the “shrunken log2 fold change” value is -0.197. For RRIRPRPPRLPRPRPRPRDPPRP the value was 0.695; for RRIRYRPPRLPRPRPRPIGEPRP, -0.135; for RRIRKRPPRLPRPRPRPFDWPRP, 0.243.

With RRIRLRPPRLPRPRPRPLWCPRP, the “shrunken log2 fold change” value was found to be 0.159. As for RRIRDRPPRLPRPRPRPDHCPRP, the figure is -0.00174. Take RRIRWRPPRLPRPRPRPFYIPRP: the “shrunken log2 fold change” value was -0.632. As for RRIRYRPPRLPRPRPRPIPCPRP, the figure is -0.156.

With RRIRSRPPRLPRPRPRPPHFPRP, the “shrunken log2 fold change” value was 0.503. In the case of RRIRQRPPRLPRPRPRPTDTPRP, the “shrunken log2 fold change” value is -0.339. For RRIRRRPPRLPRPRPRPFVDPRP the value was 0.243. For RRIRFRPPRLPRPRPRPLNVPRP the value was -0.345. For RRIRDRPPRLPRPRPRPKLFPRP the value was 0.168; for RRIRLRPPRLPRPRPRPQFPPRP, 0.172. Take RRIRGRPPRLPRPRPRPKYAPRP: the “shrunken log2 fold change” value came to 0.501.

Turning to RRIRRRPPRLPRPRPRPHHVPRP, the “shrunken log2 fold change” value turned out to be 0.296.

As for RRIRRRPPRLPRPRPRPRETPRP, the “shrunken log2 fold change” value amounted to 1.13.

In the case of RRIRVRPPRLPRPRPRPRHHPRP, the “shrunken log2 fold change” value is -0.0962. For RRIRHRPPRLPRPRPRPTPAPRP the value was 0.681; for RRIRRRPPRLPRPRPRPMAMPRP, -0.011. As for RRIRQRPPRLPRPRPRPQNNPRP, the figure is -0.54; as for RRIRSRPPRLPRPRPRPPVHPRP, 0.0185.

As to RRIRGRPPRLPRPRPRPSMLPRP, the “shrunken log2 fold change” value is 0.58. For RRIRMRPPRLPRPRPRPCLEPRP the value was 0.126; for RRIRHRPPRLPRPRPRPKEFPRP, -0.0336. For RRIRVRPPRLPRPRPRPNMDPRP the value was -0.506. For RRIRCRPPRLPRPRPRPPFGPRP the value was 0.213. In the case of RRIRWRPPRLPRPRPRPCMCPRP, the “shrunken log2 fold change” value was -0.0735. As for RRIRARPPRLPRPRPRPDSFPRP, the “shrunken log2 fold change” value was -0.0867. As to RRIRERPPRLPRPRPRPGQEPRP, the “shrunken log2 fold change” value is 0.0214.

On to RRIRVRPPRLPRPRPRPYLIPRP, for which the “shrunken log2 fold change” value was 0.0388. For RRIRNRPPRLPRPRPRPKIPPRP the value was -0.255; for RRIRTRPPRLPRPRPRPDWIPRP, -0.0498. As for RRIRHRPPRLPRPRPRPSGMPRP, the figure is 0.0613; as for RRIRWRPPRLPRPRPRPCRTPRP, 0.112; as for RRIRWRPPRLPRPRPRPHYNPRP, -0.772. For RRIRGRPPRLPRPRPRPKGDPRP the value was 0.0175. On to RRIRNRPPRLPRPRPRPLWCPRP, for which the “shrunken log2 fold change” value is -0.0608.

As for RRIRRRPPRLPRPRPRPKPRPRP, the “shrunken log2 fold change” value amounted to 0.825. For RRIRERPPRLPRPRPRPPSHPRP the value was -0.209. As for RRIRFRPPRLPRPRPRPANIPRP, the figure is -0.0774; as for RRIRPRPPRLPRPRPRPCLAPRP, -0.109; as for RRIRHRPPRLPRPRPRPSMLPRP, -0.539.

As to RRIRERPPRLPRPRPRPESWPRP, the “shrunken log2 fold change” value came out at 0.343.

On to RRIRLRPPRLPRPRPRPATEPRP, for which the “shrunken log2 fold change” value was found to be 0.149.

As for RRIRIRPPRLPRPRPRPVTIPRP, the “shrunken log2 fold change” value was 0.00236. As for RRIRPRPPRLPRPRPRPCWGPRP, the figure is -0.0769; as for RRIRFRPPRLPRPRPRPETDPRP, 0.114; as for RRIRERPPRLPRPRPRPSVDPRP, -0.318. As for RRIRKRPPRLPRPRPRPADAPRP, the figure is 0.194; as for RRIRMRPPRLPRPRPRPANHPRP, 0.0312. As for RRIRKRPPRLPRPRPRPTWFPRP, the figure is 0.203; as for RRIRMRPPRLPRPRPRPRNQPRP, 0.484.

Take RRIRVRPPRLPRPRPRPNVCPRP: the “shrunken log2 fold change” value is -0.111.

Regarding RRIRLRPPRLPRPRPRPCHGPRP, the “shrunken log2 fold change” value is -0.0309. For RRIRFRPPRLPRPRPRPMQRPRP the value was 0.226; for RRIRWRPPRLPRPRPRPRMQPRP, 0.329. As for RRIRYRPPRLPRPRPRPMKMPRP, the figure is -0.528; as for RRIRWRPPRLPRPRPRPVDGPRP, 0.0816; as for RRIRKRPPRLPRPRPRPRHGPRP, -0.0248. As for RRIRARPPRLPRPRPRPACPPRP, the figure is 0.255.

Regarding RRIRYRPPRLPRPRPRPQRNPRP, the “shrunken log2 fold change” value is -0.758. As to RRIRIRPPRLPRPRPRPWYVPRP, the “shrunken log2 fold change” value is -0.247.

As to RRIRNRPPRLPRPRPRPMIFPRP, the “shrunken log2 fold change” value was -0.287. In the case of RRIRWRPPRLPRPRPRPYPMPRP, the “shrunken log2 fold change” value was -0.128. As for RRIRHRPPRLPRPRPRPGKSPRP, the figure is -0.0128; as for RRIRWRPPRLPRPRPRPDWDPRP, 0.243. As for RRIRGRPPRLPRPRPRPFMNPRP, the figure is -0.116; as for RRIRSRPPRLPRPRPRPLQDPRP, -0.129.

Consider RRIRNRPPRLPRPRPRPIWRPRP, for which the “shrunken log2 fold change” value is 0.00377. For RRIRPRPPRLPRPRPRPEQWPRP the value was 0.0326; for RRIRYRPPRLPRPRPRPIPRPRP, 0.0268; for RRIRRRPPRLPRPRPRPEDGPRP, 0.445. As to RRIRYRPPRLPRPRPRPQLDPRP, the “shrunken log2 fold change” value was -0.555. For RRIRGRPPRLPRPRPRPMSAPRP the value was 0.702; for RRIRSRPPRLPRPRPRPDKWPRP, 0.858. As for RRIRLRPPRLPRPRPRPIGFPRP, the figure is 0.0709.

RRIRKRPPRLPRPRPRPWSCPRP: the “shrunken log2 fold change” value is -0.22. On to RRIRIRPPRLPRPRPRPQHSPRP, for which the “shrunken log2 fold change” value was -0.463. RRIRIRPPRLPRPRPRPTHDPRP: the “shrunken log2 fold change” value was -0.0575. As for RRIRFRPPRLPRPRPRPRIVPRP, the figure is -0.267; as for RRIRPRPPRLPRPRPRPASIPRP, -0.228.

For RRIRFRPPRLPRPRPRPVEEPRP, the “shrunken log2 fold change” value was -0.177. For RRIRDRPPRLPRPRPRPLRNPRP the value was 0.767; for RRIRWRPPRLPRPRPRPACMPRP, 0.164. In the case of RRIRDRPPRLPRPRPRPVEFPRP, the “shrunken log2 fold change” value was -0.0374. For RRIRVRPPRLPRPRPRPSVSPRP the value was -0.488; for RRIRNRPPRLPRPRPRPQFPPRP, -0.148. For RRIRIRPPRLPRPRPRPHVTPRP the value was -0.132; for RRIRERPPRLPRPRPRPKVLPRP, 0.0059; for RRIRKRPPRLPRPRPRPYISPRP, -0.0238. For RRIRMRPPRLPRPRPRPCSLPRP the value was -0.0103. As to RRIRARPPRLPRPRPRPNERPRP, the “shrunken log2 fold change” value amounted to 0.531.

RRIRMRPPRLPRPRPRPWPQPRP: the “shrunken log2 fold change” value came out at 0.729. On to RRIRARPPRLPRPRPRPATPPRP, for which the “shrunken log2 fold change” value was found to be 0.894. As for RRIRDRPPRLPRPRPRPGVTPRP, the figure is 0.596; as for RRIRWRPPRLPRPRPRPCDHPRP, -0.00122. Regarding RRIRMRPPRLPRPRPRPPGTPRP, the “shrunken log2 fold change” value worked out at 1.05. As for RRIRGRPPRLPRPRPRPLYYPRP, the figure is -0.13. As for RRIRDRPPRLPRPRPRPQQVPRP, the figure is 0.0253. For RRIRKRPPRLPRPRPRPNMMPRP the value was 0.172; for RRIRFRPPRLPRPRPRPGMLPRP, -0.169; for RRIRYRPPRLPRPRPRPYQLPRP, -0.00146. Regarding RRIRARPPRLPRPRPRPHPWPRP, the “shrunken log2 fold change” value was -0.00896.

For the sequence RRIRPRPPRLPRPRPRPFHKPRP, the “shrunken log2 fold change” value was -0.453. As for RRIRIRPPRLPRPRPRPEQYPRP, the figure is -0.0765; as for RRIRGRPPRLPRPRPRPNSIPRP, 0.00326. In the case of RRIRSRPPRLPRPRPRPRTKPRP, the “shrunken log2 fold change” value was 0.407. As for RRIRVRPPRLPRPRPRPLHLPRP, the figure is -0.133.

For RRIRWRPPRLPRPRPRPEMVPRP, the “shrunken log2 fold change” value was -0.222. As for RRIRFRPPRLPRPRPRPWSRPRP, the figure is -0.147; as for RRIRGRPPRLPRPRPRPAVEPRP, 1.21; as for RRIRDRPPRLPRPRPRPTLCPRP, 0.33.

In the case of RRIRWRPPRLPRPRPRPLMAPRP, the “shrunken log2 fold change” value was 0.247. As for RRIRERPPRLPRPRPRPPSLPRP, the figure is -0.0799; as for RRIRIRPPRLPRPRPRPFRAPRP, -0.332. As to RRIRPRPPRLPRPRPRPNLGPRP, the “shrunken log2 fold change” value is -0.242. For RRIRHRPPRLPRPRPRPFDRPRP the value was -0.172; for RRIRQRPPRLPRPRPRPNSPPRP, -0.0178.

As to RRIRWRPPRLPRPRPRPLQQPRP, the “shrunken log2 fold change” value stood at 0.115. On to RRIRERPPRLPRPRPRPRGKPRP, for which the “shrunken log2 fold change” value is 0.0142.

RRIRKRPPRLPRPRPRPQWPPRP: the “shrunken log2 fold change” value is 0.124. As for RRIRFRPPRLPRPRPRPTQQPRP, the figure is 0.312.
